Measured values from paper doi:10.1101/2023.02.23.529735 (bioRxiv, 2023).

Assays:
[1] = target: the molecule itself; test: FRET or BRET
[2] = target: the molecule itself; test: FRET or BRET; remark: listed apart in the source

B1: H-NS64-VC (H-NS amino acids 1-64 fused at the C-terminus to the mVenus-mCherry VC domain) (domain or fragment, E. coli, UniProt P0ACF8 1-64, looked up)
chain: MVSEALKILNNIRTLRAQARECTLETLEEMLEKLEVVVNERREEESAAAAEVEERTRKLQQYREM
FRET/Donor ratio, exponentially growing cells [1]: 0.126

B2: H-NS86-VC (H-NS amino acids 1-86 fused at the C-terminus to the mVenus-mCherry VC domain) (domain or fragment, E. coli, UniProt P0ACF8 1-86, looked up)
chain: MVSEALKILNNIRTLRAQARECTLETLEEMLEKLEVVVNERREEESAAAAEVEERTRKLQQYREMLIADGIDPNELLNSLAAVKSGT
FRET/Donor ratio, exponentially growing cells [1]: 0.132 | FRET ratio (acceptor/donor) in foci, no additive [2]: 0.073 | FRET ratio (acceptor/donor) in the solution outside the foci, no additive [2]: 0.068

B3: H-NS-VC (Histone-like Nucleoid Structuring protein H-NS fused at its C-terminus to the mVenus-mCherry VC domain) (natural protein, E. coli, UniProt P0ACF8 1-137, looked up)
chain: MGSEALKILNNIRTLRAQARECTLETLEEMLEKLEVVVNERREEESAAAAEVEERTRKLQQYREMLIADGIDPNELLNSLAAVKSGTKAKRAQRPAKYSYVDENGETKTWTGQGRTPAVIKKAMDEQGKSLDDFLIKQ
FRET/Donor ratio, after a 6 min heat shock at 42 °C [1]: 0.162 | FRET/Donor ratio, exponentially growing cells [1]: 0.105 | FRET/Donor ratio, spheroplasts returned from 880 mOsm to 220 mOsm [1]: 0.181 | FRET ratio (acceptor/donor) in foci, no additive [2]: 0.07 | FRET ratio (acceptor/donor) in the solution outside the foci, no additive [2]: 0.082
